Target: T1, soluble HCV E2 ectodomain (sE2) (hepatitis C virus)
T1 chain: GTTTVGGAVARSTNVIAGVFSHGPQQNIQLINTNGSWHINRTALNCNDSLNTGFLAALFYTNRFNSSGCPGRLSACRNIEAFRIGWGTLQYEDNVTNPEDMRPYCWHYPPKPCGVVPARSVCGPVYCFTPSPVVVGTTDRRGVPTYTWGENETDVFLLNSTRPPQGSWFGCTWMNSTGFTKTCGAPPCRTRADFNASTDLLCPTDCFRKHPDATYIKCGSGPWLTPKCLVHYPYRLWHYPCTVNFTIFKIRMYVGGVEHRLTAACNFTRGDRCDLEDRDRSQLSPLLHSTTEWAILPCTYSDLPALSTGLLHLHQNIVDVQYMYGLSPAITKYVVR

B1: Fab fragment of neutralizing antibody HCV1 (Fab, V domains shown)
VH: EVQLLESGGGVVQPGRSLRLSCTASGFTFNNYGMHWVRQTPGKGLEWLAVIWFDENNKYYADSVRGRFTISRDNSKNTLFLQMNSLKTEDTAMYYCARDISLVRDAFIYFDFWGLGTLVTVSS
VL: ELTLTQSPATLSLSPGERATLSCRASQSVSSYLAWYQQKPGQAPRLLIYDASNRATGIPARFSGSGSGTDFTLTISSLEPEDFAVYYCQQRSNWITFGQGTRLEIK
Kd: 0.294 µM

From PMC11623273 (2024)
